The source of these data is article PMC4382702, “Artificial human Met agonists based on macrocycle scaffolds” (Nature Communications, 2015).

Positions of bridges follow the written chain, without caps; N, C: chain ends.

One assay has as its system c-Ret. Nature of the assay: Transactivation of c-Ret. It counts as cell-based, human. As to the method:
EHMES-1 cells were cultured in a 12-well plate until they were 80%–90% confluent. The cells were left untreated or stimulated with hHGF or aML5-PEG3 in the presence or absence of the indicated concentrations of the specific Met kinase inhibitor, SU11274 (Calbiochem). Cells were then lysed with 100 μl of Laemmli sample buffer. Lysates were sonicated and centrifuged for 15 min at 15,000 g. Supernatants were analysed by SDS–PAGE gel electrophoresis and western blotting, using anti-phosphorylated Met (Y1234/1235) mAb or anti-phosphorylated c-Ret (Y905) antibody.

Assay [1] deals with T1, human Met ectodomain (Homo sapiens, UniProt P08581).
T1 construct: human Met ectodomain-Fc chimera was immobilized; purchased Sino Biological Inc
T1 sequence (P08581 25-932 limits assumed): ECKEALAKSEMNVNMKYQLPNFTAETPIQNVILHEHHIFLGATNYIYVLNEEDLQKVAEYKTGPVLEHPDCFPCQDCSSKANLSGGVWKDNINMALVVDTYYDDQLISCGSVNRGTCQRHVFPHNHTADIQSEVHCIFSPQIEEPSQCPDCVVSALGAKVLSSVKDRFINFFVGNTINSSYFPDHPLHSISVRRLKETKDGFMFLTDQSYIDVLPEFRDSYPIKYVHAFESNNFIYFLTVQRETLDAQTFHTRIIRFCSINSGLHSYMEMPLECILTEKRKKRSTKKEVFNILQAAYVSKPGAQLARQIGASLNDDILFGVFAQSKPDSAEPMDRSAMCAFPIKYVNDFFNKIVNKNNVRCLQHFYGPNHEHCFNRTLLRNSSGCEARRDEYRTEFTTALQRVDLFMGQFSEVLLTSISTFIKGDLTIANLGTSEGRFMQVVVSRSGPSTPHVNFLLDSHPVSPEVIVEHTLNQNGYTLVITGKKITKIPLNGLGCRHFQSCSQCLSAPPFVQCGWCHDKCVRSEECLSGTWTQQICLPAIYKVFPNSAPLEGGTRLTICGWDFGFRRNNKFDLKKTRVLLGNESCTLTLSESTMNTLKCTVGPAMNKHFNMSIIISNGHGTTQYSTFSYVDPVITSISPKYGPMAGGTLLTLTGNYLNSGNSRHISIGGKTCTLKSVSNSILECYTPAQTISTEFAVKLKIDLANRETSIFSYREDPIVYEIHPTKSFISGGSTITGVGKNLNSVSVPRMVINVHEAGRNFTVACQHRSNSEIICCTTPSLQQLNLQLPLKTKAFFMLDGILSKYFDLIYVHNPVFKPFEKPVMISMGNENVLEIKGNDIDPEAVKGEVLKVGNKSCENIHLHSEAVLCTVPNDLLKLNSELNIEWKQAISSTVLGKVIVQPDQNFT
Briefly: SPR analysis of macrocycle binding to immobilized human Met ectodomain-Fc. The protocol: (§1) The binding constants of the macrocycles to the Met ectodomain were determined by SPR analysis using a Biacore T200 machine (GE Healthcare). The running buffer was HBS EP+ buffer (10 mM Hepes pH 7.4, 150 mM NaCl, 3 mM EDTA and 0.05% (v/v) SurfactantP20) containing 0.1% DMSO. To assess the interaction between human Met and the macrocycles, human Met ectodomain-Fc chimera was immobilized to a surface density of 1,200–1,600 response units (RUs) on a CM5 sensor chip using a human antibody capture kit (GE Healthcare). Macrocycle binding was tested by injecting varying concentrations of the macrocycle at a flow rate of 30 μl min^−1. Binding was quantified by a single-cycle kinetics method. To assess whether macrocycles and hHGF interacted with human, mouse and canine Met, each biotinylated macrocycle or hHGF was immobilized to a surface density of 200–500 RUs (for biotinylated macrocycles) or ~2,200 (for biotinylated hHGF) RUs on a CAP sensor chip using a Biotin CAPture Kit (GE Healthcare), following the standard protocol. Met binding was tested by injecting varying concentrations of the macrocycle at 30 μl min^−1 and quantifying by a single-cycle kinetics method. All data were fitted to the standard 1:1 binding model.
Background: SPR reads the build-up and loss of mass on a sensor chip optically.

The target in assay [2] is T1, human Met ectodomain. Nature of the assay: SPR with biotinylated macrocycle or hHGF immobilized, human Met ectodomain injected. It counts as binding. The settings on record: ligand immobilized on streptavidin sensor chip. As to the method:
as §1
(§2) Supplementary Figure 4. SPR sensorgrams of human (blue), murine (red) and […]
(§3) Measured curves are shown in blue, red and green, and fitted curves are shown in black. […]

The next assay deals with T2, murine Met ectodomain (Mus musculus, UniProt P16056).
T2 construct: murine Met ectodomain-Fc chimera proteins; purchased Sino Biological Inc
T2 sequence (P16056 25-931 limits assumed): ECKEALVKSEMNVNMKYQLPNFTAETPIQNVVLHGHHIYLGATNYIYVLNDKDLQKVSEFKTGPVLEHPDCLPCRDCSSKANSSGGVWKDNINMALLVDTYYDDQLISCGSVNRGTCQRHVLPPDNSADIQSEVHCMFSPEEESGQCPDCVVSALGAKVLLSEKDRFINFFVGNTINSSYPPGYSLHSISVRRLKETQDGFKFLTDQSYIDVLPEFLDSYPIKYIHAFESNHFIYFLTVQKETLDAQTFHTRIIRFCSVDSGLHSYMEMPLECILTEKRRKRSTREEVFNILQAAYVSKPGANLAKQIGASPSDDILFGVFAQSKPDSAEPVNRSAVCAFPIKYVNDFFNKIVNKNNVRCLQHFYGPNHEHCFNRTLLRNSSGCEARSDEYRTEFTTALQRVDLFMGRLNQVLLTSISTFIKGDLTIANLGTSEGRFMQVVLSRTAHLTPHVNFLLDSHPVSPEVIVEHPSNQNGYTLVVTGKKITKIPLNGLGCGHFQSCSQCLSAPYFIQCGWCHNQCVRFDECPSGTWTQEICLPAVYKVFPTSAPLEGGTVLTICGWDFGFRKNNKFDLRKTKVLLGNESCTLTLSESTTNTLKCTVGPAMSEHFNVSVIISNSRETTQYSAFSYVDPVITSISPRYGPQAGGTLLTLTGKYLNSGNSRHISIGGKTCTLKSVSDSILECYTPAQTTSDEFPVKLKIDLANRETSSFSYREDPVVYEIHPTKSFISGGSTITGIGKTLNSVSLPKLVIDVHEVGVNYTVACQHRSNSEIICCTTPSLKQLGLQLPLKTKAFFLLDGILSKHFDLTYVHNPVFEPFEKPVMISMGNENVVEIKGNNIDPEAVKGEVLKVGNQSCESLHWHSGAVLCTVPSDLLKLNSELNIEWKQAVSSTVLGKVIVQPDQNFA
Nature of the assay: SPR with biotinylated macrocycle or hHGF immobilized, murine Met ectodomain injected. The class given is binding. The settings on record: ligand immobilized on streptavidin sensor chip. The protocol:
as §1, §2, §3

For another assay, the target named is T3, canine Met ectodomain (Canis lupus familiaris, UniProt Q75ZY9).
T3 construct: canine Met ectodomain were purchased from Sino Biological Inc; purchased Sino Biological Inc
T3 sequence (Q75ZY9 25-935 limits assumed): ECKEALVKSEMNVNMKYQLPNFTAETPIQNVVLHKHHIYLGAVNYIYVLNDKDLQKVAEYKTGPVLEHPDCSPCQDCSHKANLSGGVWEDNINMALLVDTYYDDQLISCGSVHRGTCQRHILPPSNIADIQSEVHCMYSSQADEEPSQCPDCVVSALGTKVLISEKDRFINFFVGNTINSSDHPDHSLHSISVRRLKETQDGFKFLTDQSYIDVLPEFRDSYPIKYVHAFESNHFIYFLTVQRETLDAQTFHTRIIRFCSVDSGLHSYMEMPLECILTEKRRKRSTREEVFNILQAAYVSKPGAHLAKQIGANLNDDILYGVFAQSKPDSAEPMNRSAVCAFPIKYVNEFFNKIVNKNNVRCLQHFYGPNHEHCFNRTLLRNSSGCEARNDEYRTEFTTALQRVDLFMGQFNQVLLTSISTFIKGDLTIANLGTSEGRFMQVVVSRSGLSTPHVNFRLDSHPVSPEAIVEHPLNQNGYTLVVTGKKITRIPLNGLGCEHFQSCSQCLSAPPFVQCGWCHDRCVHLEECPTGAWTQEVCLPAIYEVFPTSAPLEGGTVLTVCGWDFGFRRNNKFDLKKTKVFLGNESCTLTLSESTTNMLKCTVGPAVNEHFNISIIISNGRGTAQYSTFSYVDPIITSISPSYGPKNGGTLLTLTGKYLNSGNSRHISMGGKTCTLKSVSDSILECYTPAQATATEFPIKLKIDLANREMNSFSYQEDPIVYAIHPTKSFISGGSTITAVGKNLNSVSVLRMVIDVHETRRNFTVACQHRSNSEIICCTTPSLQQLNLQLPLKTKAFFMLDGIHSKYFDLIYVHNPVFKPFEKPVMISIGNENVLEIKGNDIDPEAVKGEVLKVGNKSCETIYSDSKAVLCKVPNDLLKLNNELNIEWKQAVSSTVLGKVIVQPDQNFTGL
Briefly: SPR with biotinylated macrocycle or hHGF immobilized, canine Met ectodomain injected. The class given is binding. The settings on record: ligand immobilized on streptavidin sensor chip. The protocol: as §1, §2, §3

The next assay addresses T4, Met (Y1234/1235) (Homo sapiens, UniProt P08581).
T4 construct: endogenous in cells; host or cells: EHMES-1
Briefly: Cell-based phospho-Met ELISA. The settings on record: EHMES-1 cells. The protocol:
EHMES-1 cells (2 × 10^4 cells per well) were seeded in a 96-well black μClear-plate (Greiner Bio-One). After 24 h, the cells were stimulated with hHGF or dimeric macrocycle in RPMI1640 medium supplemented with 10% FBS for 10 min. The cells were washed with ice-cold PBS, fixed with 4% paraformaldehyde (PFA) in PBS for 30 min and washed three times with PBS. The cells were blocked with 5% goat serum, 0.02% Triton X-100 in PBS for 30 min and then incubated for 12 h in phospho-Met (Tyr1234/1235) (D26) XP rabbit mAb diluted 1:1,000 in 1% goat serum in PBS at 4 °C. The cells were washed three times with PBS and incubated for 1 h in HRP-conjugated anti-rabbit goat antibody diluted 1:1,000 in 1% goat serum in PBS. Following incubation, the cells were washed four times with PBS. Chemiluminescence was developed with ImmunoStar LD reagent (Wako) and measured by ARVO MX (Perkin Elmer). Relative Met phosphorylation was calculated as (Chemiluminescence unit of sample−chemiluminescence unit of mock control)/(chemiluminescence unit of 1.3 nM hHGF−chemiluminescence unit of mock control).

Assay [3] relates to Met, Gab1, Akt and Erk1/2. Nature of the assay: Western blotting of Met and downstream signalling proteins. It counts as cell-based, human. The settings on record: starved EHMES-1 cells, hHGF 2 nM or dimers 100 nM, 10 min. The protocol: (§4) EHMES-1 cells were cultured in a six-well plate until they were 80%–90% confluent. After starvation for 6 h, the cells were stimulated with 2 nM hHGF or with 100 nM aML5-PEG3, aMD4-PEG11, aMD5-PEG11 or aMsD4-C6 for 10 min. Cells were then lysed with 200 μl of lysis buffer 17 (R&D Systems) containing 1 × Complete protease inhibitor cocktail (Roche). Lysates were analysed by SDS–PAGE analysis with 10% polyacrylamide gel and standard western blotting. The respective primary antibodies and HRP-conjugated secondary antibodies were diluted 1:2,000 in Can Get Signal Solution 1 (TOYOBO) and 1:5,000 in Can Get Signal Solution 2 (TOYOBO), respectively. Chemiluminescent signals were developed with Luminata Forte HRP substrate (Merck Millipore) and observed using an ImageQuant LAS 350 machine (GE Healthcare). Relative phosphorylation efficiency was evaluated by the band intensity and statistical differences between stimulants were calculated using Student’s t-test. The phospho-RTK array was performed using Proteome Profiler Human Phospho-RTK Array Kit (R&D Systems). For stimulation of cells with FBS, cells were cultured in the presence of 10% FBS, with or without excess concentrations of hHGF (30 nM) or aML5-PEG3 (3,000 nM) for 10 min. Cell lysates of stimulated EHMES-1 cells were analysed according to the manufacturer’s instructions.
Background: In western blotting, separated proteins are transferred to a membrane and probed.

In assay [4] the test system is 49 representative human RTKs. Nature of the assay: Phospho-RTK array. It counts as cell-based. The protocol: as §4
Another assay concerns HCC827 cells. Briefly: Cell growth assay in gefitinib-treated HCC827 cells. The class given is cell-based, human. The settings on record: HCC827 cells with 1 µM gefitinib.
In another assay the test system is HPAEC. Nature of the assay: DNA synthesis (BrdU incorporation). It counts as cell-based, human. The settings on record: 30 nM dimeric macrocycle or 0.25 nM hHGF, 20 h. The protocol: Normal HPAECs were maintained in MCDB 131 medium supplemented with 5% FBS and 1.2 nM of basic fibroblast growth factor. Cells were serum starved for 24 h and then stimulated with 30 nM dimeric macrocycle or 0.25 nM hHGF in the presence of 5% FBS and 10 μM BrdU for 20 h. The cells were fixed in 4% PFA in PBS for 30 min, permeabilized with 0.2% Triton X-100 in PBS for 5 min, treated with 2 M HCl for 20 min and neutralized with 0.1 M sodium tetraborate for 5 min. The treated, neutralized cells were incubated with anti-BrdU primary antibody (BD Biosciences) for 2 h and subsequently stained with a fluorescently labelled secondary antibody for 30 min. The nuclei were stained with DAPI. BrdU incorporation was analysed by Biozero fluorescence microscopy (Keyence).
(Dividing cells build labelled thymidine or BrdU into new DNA.)

For a further assay, the system named is RPTEC. Nature of the assay: Branching morphogenesis assay in RPTEC. It counts as cell-based, human. The settings on record: RPTEC in collagen gels, 8 days. The protocol:
RPTEC (2 × 10^4 cells) were suspended in 400 μl Cellmatrix type IA collagen solution (Nitta Gelatin) in a 48-well plate and allowed to gel for 60 min at 37 °C, according to the manufacturer’s instructions. After gelation, 500 μl REBM supplemented with 0.5% FBS and 2.4 mM L-alanyl-L-glutamine, with or without hHGF (0.42 nM, 1.3 nM) or macrocycles (30 nM, 100 nM), were added to each well. Cells were cultured for 8 days, replacing the culture medium (with or without hHGF or dimeric macrocycle) every second day. HuCCT1 (1 × 10^4 cells) were suspended in 400 μl Cellmatrix type IA collagen solution in a 48-well plate and were allowed to gel for 60 min at 37 °C. After gelation, 500 μl RPMI1640 medium supplemented with 10% FBS, with or without 0.38 nM hHGF or 20 nM dimeric macrocycle, was added to each well. Cells were cultured for 8 days, replacing the culture medium (with or without hHGF or dimeric macrocycle) every second day. TAC-2 cells (4 × 10^3 cells) were suspended in 400 μl type I collagen solution (BD Biosciences) in a 48-well plate. After gelation, 500 μl DMEM supplemented with 10% FBS, with or without hHGF or dimeric macrocycle, was added to each well. Cells were cultured for 7 days, replacing the culture medium (with or without hHGF or dimeric macrocycle) every second day.

Assay [5] deals with T5, Recombinant human Met ectodomain-Fc chimera protein (human, UniProt P08581 25-932).
T5 construct: Hepatocyte growth factor receptor (Met), human, ectodomain; Captured through its Fc with a human antibody capture kit in a1 and a2; injected as analyte in a3; also called human Met extracellular domain; source: bought: Sino Biological Inc
T5 sequence (P08581 25-932, change not shown): as the sequence (P08581 25-932 limits assumed) above
Nature of the assay: SPR; Biacore T200; human Met ectodomain-Fc captured (1,200-1,600 RU) on a CM5 chip with a human antibody capture kit; monomeric macrocycle or linear peptide injected at 30 µl/min, single-cycle kinetics; HBS EP+ (10 mM Hepes pH 7.4, 150 mM NaCl, 3 mM EDTA, 0.05% Surfactant P20) with 0.1% DMSO; 1:1 binding model. The settings on record: both partners purified.

Where [6] appears, read: 10% FBS, hHGF 30 nM or aML5-PEG3 3,000 nM.

T4 sequence (P08581 308-1390 limits assumed): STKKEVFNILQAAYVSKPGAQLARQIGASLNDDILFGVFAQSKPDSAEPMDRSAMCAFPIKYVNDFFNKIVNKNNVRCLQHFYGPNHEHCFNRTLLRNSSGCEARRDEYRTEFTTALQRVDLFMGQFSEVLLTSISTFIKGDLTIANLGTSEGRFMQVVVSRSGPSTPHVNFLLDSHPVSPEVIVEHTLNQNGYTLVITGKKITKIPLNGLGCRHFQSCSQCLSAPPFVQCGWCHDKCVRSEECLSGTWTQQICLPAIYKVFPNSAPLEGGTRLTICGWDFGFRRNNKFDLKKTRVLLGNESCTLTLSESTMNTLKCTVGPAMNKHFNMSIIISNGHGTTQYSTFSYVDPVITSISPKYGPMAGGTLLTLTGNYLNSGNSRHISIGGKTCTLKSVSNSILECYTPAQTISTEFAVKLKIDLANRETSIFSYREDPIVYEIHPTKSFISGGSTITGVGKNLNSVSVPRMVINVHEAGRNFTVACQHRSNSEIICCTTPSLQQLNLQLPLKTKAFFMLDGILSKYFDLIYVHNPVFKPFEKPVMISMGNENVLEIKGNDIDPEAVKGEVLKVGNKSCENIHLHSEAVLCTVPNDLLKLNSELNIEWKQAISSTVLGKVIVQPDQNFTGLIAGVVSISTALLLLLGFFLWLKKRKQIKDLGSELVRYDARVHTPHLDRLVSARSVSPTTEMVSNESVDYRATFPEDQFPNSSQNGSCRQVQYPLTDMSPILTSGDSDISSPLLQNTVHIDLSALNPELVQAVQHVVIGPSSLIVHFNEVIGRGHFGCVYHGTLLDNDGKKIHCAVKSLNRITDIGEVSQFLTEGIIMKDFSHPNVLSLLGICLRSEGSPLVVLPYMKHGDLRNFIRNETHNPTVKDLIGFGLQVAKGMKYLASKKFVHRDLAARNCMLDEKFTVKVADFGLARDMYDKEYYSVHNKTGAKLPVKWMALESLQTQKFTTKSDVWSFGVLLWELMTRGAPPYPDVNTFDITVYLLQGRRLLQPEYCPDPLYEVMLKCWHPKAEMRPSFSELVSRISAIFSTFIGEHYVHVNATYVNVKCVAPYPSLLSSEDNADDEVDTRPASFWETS
T4 sequence (P08581 25-307 limits assumed): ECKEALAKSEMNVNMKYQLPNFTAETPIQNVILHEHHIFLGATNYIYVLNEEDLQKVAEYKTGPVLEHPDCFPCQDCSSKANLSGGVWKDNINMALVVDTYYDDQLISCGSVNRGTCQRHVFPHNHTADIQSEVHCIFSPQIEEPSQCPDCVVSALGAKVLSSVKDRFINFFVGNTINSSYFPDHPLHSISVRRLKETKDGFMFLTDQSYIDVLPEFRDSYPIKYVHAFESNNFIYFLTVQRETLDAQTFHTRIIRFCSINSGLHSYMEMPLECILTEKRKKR
Method for HCC827 cells: Cells were plated at 2,500 cells per well in 96-well plates for calcein-AM staining or 7,500 cells per well in 48-well plates for cell counting. For HUVEC and HDMEC, plates were pre-coated with gelatin (Difco Laboratories, 0.1% for 1 h at 37 °C). After 3 h, the medium was removed and replaced with medium as follows: HUVEC and HDMEC were cultured in endothelial cell basal medium supplemented with 2% (HUVEC) or 1% (HDMEC) FCS, and 90 μg ml^−1 heparin, with or without hHGF or dimeric macrocycle. RPTEC were cultured in REBM supplemented with 0.5% FBS and 2.4 mM L-alanyl-L-glutamine, with or without hHGF or dimeric macrocycle. NHEK was cultured in KBM2 supplemented with 0.4% bovine pituitary extract, 0.33 μg ml^−1 hydrocortisone, 0.39 μg ml^−1 epinephrine, 10 μg ml^−1 transferrin and 1.8 mM CaCl2, with or without hHGF or dimeric macrocycle. […] The culture media (with or without hHGF or dimeric macrocycle) were replaced every second day. After 6 days, cells were stained with 5 μg ml^−1 calcein-AM (Dojindo) at 37 °C for 15 min. Fluorescence of living cells was detected by ARVO MX. Alternatively, cells were harvested with trypsin–EDTA solution, suspended in culture medium and the cell number was determined using a Countess Automated Cell Counter (Life Technologies). Statistical differences between stimulants were calculated using Student’s t-test.

Consider `Cc1[nH]c(/C=C2\C(=O)Nc3ccc(S(=O)(=O)N(C)c4cccc(Cl)c4)cc32)c(C)c1C(=O)N1CCN(C)CC1` [SU11274, reference compound], for which, in the assay on c-Ret (EHMES-1 cells stimulated with 1 nM hHGF or 100 nM aML5-PEG3), the “effect of Met inhibitor on c-Ret phosphorylation” value was “decreased c-Ret phosphorylation”.

“aML5-Lin: linear counterpart of aML5 (Ac-YISWNEFNSPNWRFITAG-NH2)”: the “KD relative to parental peptides” value in the assay with human Met ectodomain [1] is listed as “approximately two orders of magnitude higher”.

As for “hHGF: human recombinant hepatocyte growth factor, positive control”, in the assay with human Met ectodomain [2], the “binding to human Met ectodomain” value was “binding of the immobilized hHGF to all three of the ectodomains”. The “binding to murine Met ectodomain” value in the assay with murine Met ectodomain is reported as “binding of the immobilized hHGF to all three of the ectodomains”. The “binding to canine Met ectodomain” value in the assay with canine Met ectodomain is recorded as “binding of the immobilized hHGF to all three of the ectodomains”. For the same molecule, in the assay with Met (Y1234/1235), the “concentration above which Met phosphorylation level decreased (bell-shaped response)” value is on record as “above 5 nM”. The “phosphorylation of Met and downstream proteins (Gab1, Akt, Erk1/2)” value in assay [3] is “Met was phosphorylated at the Y1234/1235 and Y1349 residues”. Besides, in assay [4] (setting [6]), the “Met phosphorylation at excess concentration” value is “strongly induced Met phosphorylation” and the “effect on RTKs phosphorylated in FBS-containing media” value is “neither affected the phosphorylation level of the RTKs”. Further, in assay [4] (EHMES-1 cells, 100 nM dimeric macrocycles or 2 nM hHGF, 10 min, without FBS), the RTK phosphorylation selectivity entry is reported as “specifically phosphorylated Met”. Also, the c-Ret phosphorylation result with c-Ret (EHMES-1 cells, FBS-containing media) is on record as “induced c-Ret phosphorylation in a dose-dependent manner”. The restoration of proliferation entry in the assay on HCC827 cells was “restored in a dose-dependent manner”. Also, in the assay on HPAEC, the “DNA synthesis (BrdU incorporation)” value is given as “promoted DNA synthesis”. Besides, the branched tubule formation entry with RPTEC is listed as “developed branched tubules”.

As for “biotinylated hHGF: hHGF biotinylated using NH2-Reactive Biotin, 1.5 biotin per hHGF”, in the assay with Met (Y1234/1235) (10 min stimulation, 10% FBS), the “Met Y1234/1235 phosphorylation (agonist activity)” value is on record as “equivalent to that of hHGF”.

B1: aML5 (peptide)
peptide: {CH2CO}-YISWNEFNSPNWRFITCG-NH2
modifications: thioether N-17
SMILES: CC[C@H](C)[C@@H]1NC(=O)[C@H](Cc2ccc(O)cc2)NC(=O)CSC[C@@H](C(=O)NCC(N)=O)NC(=O)[C@H]([C@@H](C)O)NC(=O)[C@H]([C@@H](C)CC)NC(=O)[C@H](Cc2ccccc2)NC(=O)[C@H](CCCNC(=N)N)NC(=O)[C@H](Cc2c[nH]c3ccccc23)NC(=O)[C@H](CC(N)=O)NC(=O)[C@@H]2CCCN2C(=O)[C@H](CO)NC(=O)[C@H](CC(N)=O)NC(=O)[C@H](Cc2ccccc2)NC(=O)[C@H](CCC(=O)O)NC(=O)[C@H](CC(N)=O)NC(=O)[C@H](Cc2c[nH]c3ccccc23)NC(=O)[C@H](CO)NC1=O
notes: thioether macrocycle selected by RaPID from the L-library against human Met ectodomain; also called anti-Met L-library macrocycle 5; source: synthetic peptide (Fmoc SPPS, RP-HPLC purified)
A word on the Kd: it is a measure of binding affinity in units of concentration. As a reminder, the koff is a measure of how fast the partners let go of each other. As a reminder, the kon is a measure of how fast the partners come together. In the case of B1, in assay [5], the Kd was determined as 19 nM, the koff was 0.0081 s⁻¹ and the kon was determined as 430000 M⁻¹ s⁻¹.

B2: aML5-Lin (peptide)
peptide: Ac-YISWNEFNSPNWRFITAG-NH2
notes: linear form of aML5, Ala in place of the ring-closing Cys; also called linear counterpart of aML5; source: synthetic peptide
Consider B2, for which, in assay [5], the Kd came to 1300 nM, the off-rate (koff) stood at 0.017 s⁻¹ and the association rate constant (kon) was found to be 13000 M⁻¹ s⁻¹.
